# From article PMC11302665
# pKd: −log10 of the molar value.
# Columns and labels:
# IscS (Escherichia coli) = IscS (Escherichia coli) (UniProt P0A6B7); test: native mass spectrometry; settings: cited from earlier work
# [1] = molecular target: R220/223/225E triple variant of IscS (E. coli) (UniProt P0A6B7); test: native MS; ESI-MS under non-denaturing conditions of IscS alone, 250 mM ammonium acetate, pH 8.0
# [2] = molecular target: L-cysteine desulfurase IscS (E. coli) (UniProt P0A6B7); test: native MS; ~8 µM IscS (~4 µM dimeric IscS) titrated with increasing TusA in 250 mM ammonium acetate, pH 8.0; fractional intensities fitted to a sequential binding model (Dynafit)
# [3] = molecular target: L-cysteine desulfurase IscS (E. coli) (UniProt P0A6B7)
Substance,pKd [2],further results
IscU (from UniProt P0ACD4),–,pKd (IscS (Escherichia coli)): 5.52
R220/223/225E triple variant of IscS (from UniProt P0A6B7 1-404) (enzyme),–,stoichiometry N [1]: 2
TusA (from UniProt P0A890 1-81) (natural protein),5.10,L-cysteine desulfurase activity of IscS (methylene blue assay) after addition of TusA [3]: 3 fold
TusA C19S variant (from UniProt P0A890 1-81) (natural protein),5.10,–
TusA C56A variant (from UniProt P0A890 1-81) (natural protein),5.10,–
